Results on two molecules are retold here after patent US20190248863A1.

The target of the test is human RXFP2 (human), Q8WXD0. As to the kind of experiment: cell-based or functional assay.

Positions of bridges follow the written chain, without caps; N, C: chain ends. Chains are numbered I, II in the order given. No end group written: not given here.

Chain of human RXFP2 (human), Q8WXD0 (Q8WXD0 whole entry): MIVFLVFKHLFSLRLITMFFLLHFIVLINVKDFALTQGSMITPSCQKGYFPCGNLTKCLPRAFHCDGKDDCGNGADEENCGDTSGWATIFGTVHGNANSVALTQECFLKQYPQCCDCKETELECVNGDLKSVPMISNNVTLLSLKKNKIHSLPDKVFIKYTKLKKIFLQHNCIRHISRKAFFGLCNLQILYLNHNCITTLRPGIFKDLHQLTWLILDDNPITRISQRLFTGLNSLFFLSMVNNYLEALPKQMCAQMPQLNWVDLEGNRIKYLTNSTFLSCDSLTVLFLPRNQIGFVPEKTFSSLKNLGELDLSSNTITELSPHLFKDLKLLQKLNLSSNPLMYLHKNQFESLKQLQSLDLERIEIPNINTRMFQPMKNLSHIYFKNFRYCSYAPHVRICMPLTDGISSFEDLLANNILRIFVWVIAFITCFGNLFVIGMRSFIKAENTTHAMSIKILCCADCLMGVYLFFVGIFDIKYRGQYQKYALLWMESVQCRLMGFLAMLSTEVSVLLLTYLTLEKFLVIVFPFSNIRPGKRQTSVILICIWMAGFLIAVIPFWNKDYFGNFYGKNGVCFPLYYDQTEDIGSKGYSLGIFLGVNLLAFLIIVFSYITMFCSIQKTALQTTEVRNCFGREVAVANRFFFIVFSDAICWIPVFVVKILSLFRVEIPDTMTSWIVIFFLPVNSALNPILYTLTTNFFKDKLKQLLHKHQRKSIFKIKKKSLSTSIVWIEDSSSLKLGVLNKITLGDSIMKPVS

B1: RLX-A-AQ1-20KPEG (ligand)
chain 1: XLYSALANKCCHVGCTKRSLARFC
chain 2: ASWMEEVIKLCGRELVRAQIAICGMSTWS
modifications: here or on the partner: para-acetylphenylalanine (pAcF, X) at position 1 of the A chain, linked to a 20 kDa PEG via an oxime linkage
On to B1, for which the Maximal cAMP stimulation by RLX-A-AQ1-20KPEG compared to WT-RLX (percent), AVG, hRXFP2 was determined as 99%; the Potency Ratio (RLX-A-AQ1-20KPEG/WT-RLX), cAMP assay was found to be 32 fold; the RLX-A-AQ1-20KPEG Potency Ratio (hRXFP1-1.0), cAMP assay was 54 fold; the cAMP Assay EC50 (nM), human RXFP2/CHO-K1 cells was 174 nM.

B2: wild-type human relaxin 2 (WT-RLX) (ligand)
chain 1: QLYSALANKCCHVGCTKRSLARFC
chain 2: DSWMEEVIKLCGRELVRAQIAICGMSTWS
modifications: disulfide I:10-I:15, I:11-II:11, I:24-II:23
Molecule B2 came in with a cAMP Assay EC50 (nM), human RXFP2/CHO-K1 cells of 5.5 nM and a fold less potent than INSL3 (cAMP assay EC50, human RXFP2/CHO-K1 cells) of 10 fold.
